# Reference: paper PMC2972214 (2010)
# B1: human plasminogen (natural protein)
# chain: EPLDDYVNTQGASLFSVTKKQLGAGSIEECAAKCEEDEEFTCRAFQYHSKEQQCVIMAENRKSSIIIRMRDVVLFEKKVYLSECKTGNGKNYRGTMSKTKNGITCQKWSSTSPHRPRFSPATHPSEGLEENYCRNPDNDPQGPWCYTTDPEKRYDYCDILECEEECMHCSGENYDGKISKTMSGLECQAWDSQSPHAHGYIPSKFPNKNLKKNYCRNPDRELRPWCFTTDPNKRWELCDIPRCTTPPPSSGPTYQCLKGTGENYRGNVAVTVSGHTCQHWSAQTPHTHNRTPENFPCKNLDENYCRNPDGKRAPWCHTTNSQVRWEYCKIPSCDSSPVSTEQLAPTAPPELTPVVQDCYHGDGQSYRGTSSTTTTGKKCQSWSSMTPHRHQKTPENYPNAGLTMNYCRNPDADKGPWCFTTDPSVRWEYCNLKKCSGTEASVVAPPPVVLLPDVETPSEEDCMFGNGKGYRGKRATTVTGTPCQDWAAQEPHRHSIFTPETNPRAGLEKNYCRNPDGDVGGPWCYTTNPRKLYDYCDVPQCAAPSFDCGKPQVEPKKCPGRVVGGCVAHPHSWPWQVSLRTRFGMHFCGGTLISPEWVLTAAHCLEKSPRPSSYKVILGAHQEVNLEPHVQEIEVSRLFLEPTRKDIALLKLSSPAVITDKVIPACLPSPNYVVADRTECFITGWGETQGTFGAGLLKEAQLPVIENKVCNRYEFLNGRVQSTELCAGHLAGGTDSCQGDSGGPLVCFEKDKYILQGVTSWGLGCARPNKPGVYVRVSRFVTWIEGVMRNN
# Key:
# Experiment in all cases: SPR
# [1] = target: recombinant α-enolase of Streptococcus salivarius SV41 (IPM …) (Streptococcus salivarius, UniProt J7THK5 1-434)
# [2] = target: recombinant α-enolase of Streptococcus oralis SV11 (IPM …) (Streptococcus oralis, UniProt A0A1X1IR15 1-434)
# [3] = target: recombinant α-enolase of Streptococcus salivarius SV17 (IPM FYENG—VY) (Streptococcus salivarius, UniProt J7THK5 1-434)
# [4] = target: recombinant α-enolase of oral streptococcal strain SV90
binder,measurement,setting,value
B1,Kd,[1],300 nM
same,Kd,[2],1600 nM
same,Kd,[3],500 nM
same,Kd,[4],300 nM
